This passage reports Km, kcat and kcat/Km results from article PMC5309861, “Mechanistic insight into the substrate specificity of 1,2-β-oligoglucan phosphorylase from Lachnoclostridium phytofermentans” (Scientific Reports, 2017).

As a reminder, the Km is the substrate concentration at which the rate is half of its maximum. Usually kcat stands for the maximal rate divided by the concentration of active sites. The kcat/Km is the second-order rate constant that governs catalysis at low substrate concentration.

Substrate in the data set: O=P(O)(O)O[C@H]1O[C@H](CO)[C@@H](O)[C@H](O)[C@H]1O
The data set is described as follows: phosphate release (molybdate colorimetry), Michaelis-Menten fit. Format: biochemical, Lachnoclostridium phytofermentans. To be noted: synthetic reaction, donor, pH 7.0, 30 °C, acceptor not stated. From the text: phosphate release (molybdate colorimetry), Michaelis-Menten fit on LpSOGP

B1: LpSOGP (Lachnoclostridium phytofermentans ISDg) (protein)
chain: MILKTLSAPIILENSNSTFTFLPGGDNFEWIHESIMINAFQGNTLDGSTNNLYLRIYKDNSLAFYPLIGMNSKSTIKSGTSTLIFEGTAEDISYTVTFRLTPYGIWFWDISLSGNCNKADIIYSQDIGVGTKGSVNSNELYLAQYLGHSIFQGDYGYVICSRQNMAQGDLFPYLQQGSLGIRSIAYSTDGTQFFGLSYKKTNIPEALYGDLPSKNKQYELAHTALQTEAFSLSGTKQFSFYGICKTNHPEVIREIEYIQELEKAYAYHESGEILPVNVPTLQNIGAPYASSRWDAKQVEHYFPKRLLEEKEEEALLSFFTPEKSHVVLQDKELTTERPHGHILMTNFDVTKVPQGVVSSTNYMYGAFNCQFVVGNTTYNKLLSNHRGLLNIQKDSGQRIFIKIGDCYRQLTLPAAYEMNVAGSTWYYQLDEDVLIITSFAMYNRPEIVLKVQSLGHKKYDFIVTHQLTVGPNEYENEIKLTREGNILQLSPTDPVVTNHFYPELSFRMRIPEDCTLSDDSIFFHNNTTINPSLLSIEILQKSSFDIVMQGFDTGNVIPFLDQYDYKEQLEAYRIYYDQLVCNFKLSAPDKIPLSAEKLNAIIHWYAHDALIHFASPHGLEQSGGAAWGTRDVCQGPIEFFLTTGHFDLVRHILITLYSHQIEGGFEWPQWFMFDHYPIHQEDCHGDVVFWPLKAISDYIQATGDTSILNELVDYRTAKDALPTNQPETILIHIKRAVTTIKNRYLSGTALISYAGGDWDDTLQPANSELKENLVSAWTQALAEQTLELLCSAIKGIDHDFSKELSHMANDIRTSFYQYLIKDGVIAGFLYRESEEHMKYMLHPDDTESSIHYRLLPLTRSIIAQLADFKLATRNLEIIDEHLACPDGVRLMDHPASYSGGISKIFLRAEQAANVGREISLQYVHAHIRYIEALATMGLSKKAWDALMRINPILLTDYVPNALTRQSNVYFSSSEGCFDDRYEYAKNFDKLRTGDINVKGGWRLYSSGPGIYIRRIIADLLGIRFGHNVIHIDPVVTKELDGVTLQFTCFGKTVFFTYHVDDTMDKHICVKSNNNILPGDNLNNIYRDGGIQIAKDVFLSAAMSDNNFHIYVKN
notes: full length with C-terminal His6 tag (pET28a, kept); E. coli BL21(DE3); theoretical mass 169640 Da as printed; monomer; structure residues 1-1113
Take B1: the Michaelis-Menten constant (Km) came to 2600 ± 300 µM, the kcat was 28 ± 1 s⁻¹ and the kcat/Km was 11000 ± 1000 M⁻¹ s⁻¹.
